The pKd is −log10 of the Kd, conventionally taken in molar units. A higher pKd goes with a low Kd. The term koff denotes a measure of how fast the partners let go of each other. A lower koff goes with a long-lived complex. The kon is a measure of how fast the partners come together. The stoichiometry N is a count of units in the complex or per binding partner.

The values below come from paper PMC6544907.

Assay [1] concerns the target human plasma plasminogen (human). In words: SPR.
Assay [2] deals with PAM_(NS88.2), recombinant full-length PAM of GAS strain NS88.2 (emm98.1) (Streptococcus pyogenes (GAS) strain NS88.2). In words: AUC.
Assay [3] has as its target PAM_(NS223), recombinant full-length PAM of GAS strain NS223 (emm91) (Streptococcus pyogenes (GAS) strain NS223). Kind of assay: AUC.
Assay [4] addresses PAM_(NS455), recombinant full-length PAM of GAS strain NS455 (emm52) (Streptococcus pyogenes (GAS) strain NS455). Kind of assay: AUC.
Assay [5] has as its target PAM_(SS1448), recombinant full-length PAM of GAS strain SS1448 (emm86.2) (Streptococcus pyogenes (GAS) strain SS1448). In words: AUC.
In assay [6] the target is PAM_(SS1572), recombinant full-length PAM of GAS strain SS1572 (emm223) (Streptococcus pyogenes (GAS) strain SS1572). In words: AUC.
Assay [7] deals with PAM_(SS1574), recombinant full-length PAM of GAS strain SS1574 (emm224) (Streptococcus pyogenes (GAS) strain SS1574). Kind of assay: AUC.
The target in assay [8] is PAM on cells of GAS strain SS1574 (Streptococcus pyogenes (endogenous in strain SS1574)) (UniProt P49054). Kind of assay: flow cytometry on cells. A general note: Flow cytometry measures light scatter and fluorescence of single cells or particles in a stream.

pKd: −log10 of the molar value. Some results are limits rather than exact numbers.

Turning to “PAM_(AP53), recombinant full-length PAM of GAS strain AP53 (emm53) (natural protein)”, in assay [1], the pKd was 8.80, the koff came to 0.00056 s⁻¹ and the kon was 340000 M⁻¹ s⁻¹.
As for “PAM_(AP53_short) (residues 42-175 of PAM_(AP53)) (domain or fragment)”, the koff in assay [1] was 0.00077 s⁻¹.
For “PAM_(NS88.2), recombinant full-length PAM of GAS strain NS88.2 (emm98.1) (natural protein)”, the stoichiometry N in assay [2] turned out to be 2. In assay [1], this substance showed a pKd of 8.92 and a koff of 0.00023 s⁻¹.
With “PAM_(NS223), recombinant full-length PAM of GAS strain NS223 (emm91) (natural protein)”, the stoichiometry N in assay [3] came to 2. In assay [1], the pKd was 8.85, the koff was found to be 0.00033 s⁻¹ and the kon came to 240000 M⁻¹ s⁻¹.
In the case of “PAM_(NS455), recombinant full-length PAM of GAS strain NS455 (emm52) (natural protein)”, the stoichiometry N in assay [4] stood at 2. In assay [1], this substance yielded a koff of 0.00017 s⁻¹ and a kon of 540000 M⁻¹ s⁻¹.
For the substance “PAM_(SS1448), recombinant full-length PAM of GAS strain SS1448 (emm86.2) (natural protein)”, the stoichiometry N in assay [5] came to 2. In assay [1], the pKd is 7.55, the koff came to 0.001 s⁻¹ and the kon worked out at 36000 M⁻¹ s⁻¹.
Turning to “PAM_(SS1572), recombinant full-length PAM of GAS strain SS1572 (emm223) (natural protein)”, in assay [6], the stoichiometry N was 2. Besides, in assay [1], the pKd was 8.31, the koff amounted to 0.00059 s⁻¹ and the kon is 120000 M⁻¹ s⁻¹.
For “PAM_(SS1574), recombinant full-length PAM of GAS strain SS1574 (emm224) (natural protein)”, in assay [7], the stoichiometry N amounted to 2. In assay [1], this substance had a negative-log Kd (pKd) of 8.96 and a koff of 0.00011 s⁻¹.
Take “human plasma plasminogen (natural protein)”: the amount of hPg bound, fold of strain AP53 in assay [8] was less than 2 fold.
